Columns and labels:
Format in all cases: biochemical
Set-up in all cases: key: +: Detected; −: Not detected
[1] = Synthesis of N-caprinoyl-amino acid derivative, N-caprinoyl-D-amino acid and N-caprinoyl-peptide using purified acylamino acid synthetase, UPLC-MS detection; details: +ATP
Experimental: 0.2 mL of a reaction solution containing 50 mM Tris-HCl, 5 mM amino acid derivative or D-amino acid or peptide, 5 mM sodium caprate, 10 mM ATP, 10 mM MgCl2, 1 mM DTT, 50 μg/mL of the purified enzyme, pH 8.0 was incubated at 25° C. for 24 hours. After completion of the reaction, 0.8 mL of the reaction stop solution (1% (v/v) phosphoric acid, 75% (v/v) methanol) was added, and the mixture was filtrated through the filter followed by being subjected to the UPLC-MS analysis to detect a signal of a molecular weight corresponding to an N-caprinoyl-amino acid derivative, an N-caprinoyl-amino acid or an N-caprinoyl-peptide. A condition for the UPLC-MS analysis is as described in Example 2.
As a result of the UPLC-MS analysis, the signal of the molecular weight corresponding to the N-caprinoyl-amino acid derivative, or N-caprinoyl-amino acid, or N-caprinoyl-peptide was confirmed in the reaction solution containing the enzyme in combination with the amino acid derivative or the D-amino acid or the peptide shown in Table 4 below.

[2] = Synthesis of N-acylamino acids from various fatty acids using purified acylamino acid synthetase, UPLC-MS detection
Experimental: 0.1 mL of a reaction solution containing 50 mM Tris-HCl, 5 mM amino acid, 5 mM sodium fatty acid (3 mM of sodium palmitate or sodium stearate), 10 mM ATP, 10 mM MgCl2, 1 mM DTT, 200 μg/mL of the purified enzyme, pH 8.0 was shaken at 25° C. for 24 hours. When sodium palmitate or sodium stearate was used, methanol at a final concentration of 10% (v/v) was contained in the reaction solution. As the amino acid, L-Asp was used in AtGH3-6, OsGH3-8, AtGH3-5, AtGH3-12, L-Ile was used in AtJAR1, L-Ala was used in AtGH3-10, SsGH3, L-Glu was used in AtGH3-17, Gly was used in CfHP, L-Lys was used in PsIAAL, and L-Cys was used in PaHP. After completion of the reaction, 0.4 mL of the reaction stop solution (1% (v/v) phosphoric acid, 75% (v/v) methanol) was added, and the mixture was filtrated through the filter followed by being subjected to the UPLC-MS analysis to detect a signal of a molecular weight corresponding to the N-acylamino acid.
The condition for the UPLC-MS analysis is as follows.
(§1) Apparatus: ACQUITY UPLC (Waters)
Column: ACQUITY UPLC BEH C18 1.7 μm 2.1×100 mm Column (Waters), mobile phase A: 0.1% formic acid; mobile phase B: acetonitrile
• Flow rate: 0.6 mL/minute • Injection amount: 2 μL • Column temperature: 40° C. • Ionization method: ESI-negative
As a result of the UPLC-MS analysis, the signal of the molecular weight corresponding to the appropriate N-acylamino acid was confirmed in the reaction solution containing the enzyme in combination with sodium fatty acid shown in Table 7 below.

[3] = Synthesis of N-caprinoylamino acid using purified acylamino acid synthetase, UPLC-MS detection; details: +ATP
Experimental: 2.0 mL of a reaction solution containing 50 mM Tris-HCl, 5 mM amino acid, 5 mM sodium caprate, 10 mM ATP, 10 mM MgCl2, 1 mM DTT, 50 μg of the purified enzyme, pH 8.0 was incubated at 25° C. for 24 hours. After completion of the reaction, 0.8 mL of a reaction stop solution (1% (v/v) phosphoric acid, 75% (v/v) methanol) was added, and the mixture was filtrated through a filter followed by being subjected to the UPLC-MS analysis to detect a signal of a molecular weight corresponding to an N-caprinoyl amino acid.
A UPLC-MS analysis condition is as follows.
as §1
• Column: ACQUITY UPLC BEH C18 1.7 2.1×100 mm Column (Waters) • Mobile phase A: 0.1% formic acid • Mobile phase B: acetonitrile Gradient
• Flow rate: 0.6 mL/min • Injection amount: 2 μL • Column temperature: 40° C. • Ionization method: ESI-negative
As a result of the UPLC-MS analysis, the signal of the molecular weight corresponding to the N-caprinoyl amino acid was confirmed in the reaction solution combining the enzyme and the amino acid shown in Table 3 below.

B1: AtJAR1: Jasmonic acid-amido synthetase JAR1 from Arabidopsis thaliana, His-tagged (protein, listed as Arabidopsis thaliana)
chain: MLEKVETFDMNRVIDEFDEMTRNAHQVQKQTLKEILLKNQSAIYLQNCGLNGNATDPEEAFKSMVPLVTDVELEPYIKRMVDGDTSPILTGHPVPAISLSSGTSQGRPKFIPFTDELMENTLQLFRTAFAFRNRDFPIDDNGKALQFIFSSKQYISTGGVPVGTATTNVYRNPNFKAGMKSITSPSCSPDEVIFSPDVHQALYCHLLSGILFRDQVQYVFAVFAHGLVHAFRTFEQVWEEIVTDIKDGVLSNRITVPSVRTAMSKLLTPNPELAETIRTKCMSLSNWYGLIPALFPNAKYVYGIMTGSMEPYVPKLRHYAGDLPLVSHDYGSSEGWIAANVTPRLSPEEATFAVIPNLGYFEFLPVSETGEGEEKPVGLTQVKIGEEYEVVITNYAGLYRYRLGDVVKVIGFYNNTPQLKFICRRNLILSINIDKNTERDLQLSVESAAKRLSEEKIEVIDFSSYIDVSTDPGHYAIFWEISGETNEDVLQDCCNCLDRAFIDAGYVSSRKCKTIGALELRVVAKGTFRKIQEHFLGLGSSAGQFKMPRCVKPSNAKVLQILCENVVSSYFSTAF
modifications: His-tag
notes: Jasmonic acid-amido synthetase JAR1 from Arabidopsis thaliana, His-tagged
[1]; substrates Carnosine and sodium caprate
  signal of molecular weight corresponding to N-caprinoyl compound: −
[1]; substrates D-Ala and sodium caprate
  signal of molecular weight corresponding to N-caprinoyl compound: +
[1]; substrates D-Asp and sodium caprate
  signal of molecular weight corresponding to N-caprinoyl compound: +
[1]; substrates D-Cys and sodium caprate
  signal of molecular weight corresponding to N-caprinoyl compound: −
[1]; substrates D-Glu and sodium caprate
  signal of molecular weight corresponding to N-caprinoyl compound: +
[1]; substrates D-Ile and sodium caprate
  signal of molecular weight corresponding to N-caprinoyl compound: +
[1]; substrates D-Lys and sodium caprate
  signal of molecular weight corresponding to N-caprinoyl compound: −
[1]; substrates L-Asp-L-Phe and sodium caprate
  signal of molecular weight corresponding to N-caprinoyl compound: −
[1]; substrates L-Gly-L-Gly and sodium caprate
  signal of molecular weight corresponding to N-caprinoyl compound: +
[1]; substrates Sarcosine and sodium caprate
  signal of molecular weight corresponding to N-caprinoyl compound: +
[1]; substrates Taurine and sodium caprate
  signal of molecular weight corresponding to N-caprinoyl compound: +
[2]; substrates L-Ile and Capric acid
  signal of molecular weight corresponding to N-acylamino acid: +
[2]; substrates L-Ile and Caproic acid
  signal of molecular weight corresponding to N-acylamino acid: +
[2]; substrates L-Ile and Caprylic acid
  signal of molecular weight corresponding to N-acylamino acid: +
[2]; substrates L-Ile and Lauric acid
  signal of molecular weight corresponding to N-acylamino acid: +
[2]; substrates L-Ile and Linoleic acid
  signal of molecular weight corresponding to N-acylamino acid: −
[2]; substrates L-Ile and Palmitic acid
  signal of molecular weight corresponding to N-acylamino acid: −
[2]; substrates L-Ile and myristic acid
  signal of molecular weight corresponding to N-acylamino acid: −
[3]; substrates GABA and sodium caprate
  signal of molecular weight corresponding to N-caprinoyl amino acid: +
[3]; substrates Gly and sodium caprate
  signal of molecular weight corresponding to N-caprinoyl amino acid: +
[3]; substrates L-Ala and sodium caprate
  signal of molecular weight corresponding to N-caprinoyl amino acid: +
[3]; substrates L-Arg and sodium caprate
  signal of molecular weight corresponding to N-caprinoyl amino acid: +
[3]; substrates L-Asn and sodium caprate
  signal of molecular weight corresponding to N-caprinoyl amino acid: +
[3]; substrates L-Asp and sodium caprate
  signal of molecular weight corresponding to N-caprinoyl amino acid: +
[3]; substrates L-Cys and sodium caprate
  signal of molecular weight corresponding to N-caprinoyl amino acid: −
[3]; substrates L-Gln and sodium caprate
  signal of molecular weight corresponding to N-caprinoyl amino acid: +
[3]; substrates L-Glu and sodium caprate
  signal of molecular weight corresponding to N-caprinoyl amino acid: +
[3]; substrates L-His and sodium caprate
  signal of molecular weight corresponding to N-caprinoyl amino acid: +
[3]; substrates L-Ile and sodium caprate
  signal of molecular weight corresponding to N-caprinoyl amino acid: +
[3]; substrates L-Leu and sodium caprate
  signal of molecular weight corresponding to N-caprinoyl amino acid: +
[3]; substrates L-Lys and sodium caprate
  signal of molecular weight corresponding to N-caprinoyl amino acid: −
[3]; substrates L-Met and sodium caprate
  signal of molecular weight corresponding to N-caprinoyl amino acid: +
[3]; substrates L-Phe and sodium caprate
  signal of molecular weight corresponding to N-caprinoyl amino acid: +
[3]; substrates L-Pro and sodium caprate
  signal of molecular weight corresponding to N-caprinoyl amino acid: +
[3]; substrates L-Ser and sodium caprate
  signal of molecular weight corresponding to N-caprinoyl amino acid: +
[3]; substrates L-Thr and sodium caprate
  signal of molecular weight corresponding to N-caprinoyl amino acid: +
[3]; substrates L-Trp and sodium caprate
  signal of molecular weight corresponding to N-caprinoyl amino acid: +
[3]; substrates L-Tyr and sodium caprate
  signal of molecular weight corresponding to N-caprinoyl amino acid: +
[3]; substrates L-Val and sodium caprate
  signal of molecular weight corresponding to N-caprinoyl amino acid: +
[3]; substrates β-Ala and sodium caprate
  signal of molecular weight corresponding to N-caprinoyl amino acid: +
